In patent US6495376B1, “Methods and compositions for regulating protein-protein interactions” (Beth Israel Deaconess Medical Center, priority 1999, dated 2002):

How the values were obtained:
WFYpSPFLE (Pintide) = assay: Fluorescence anisotropy (polarization) binding to fluorescein-labeled phosphorylated Pintide analogue
Excerpt: To determine the affinity of Pin1, and its WW or PPIase domain for phosphopeptides, peptides were labeled with fluorescein and their interactions with Pin1 measured using quantitative fluorescence anisotrophy. To prevent nonspecific labeling, a Pintide analogue (WFYpSPFLE) SEQ ID NO: 9 was used, which binds Pin1 with a high affinity based on the peptide library screen as described by (Lu, K. P. et al., U.S. Ser. No. 60/058,164 (1997), the teachings of which are incorporated herein in their entirety.
Pintide and its nonphosphorylated counterpart were synthesized and incubated with GST-Pin1 or the GST-WW-domain of Pin1 in a binding buffer, using established procedures (Shen, M. et al., Genes & Dev 12:706 (1998)). After a 1 hr incubation, mitotic HeLa cell extracts were added and subjected to GST pull down experiments, followed by immunoblotting analysis using the MPM-2 antibody. To obtain semi-quantitative data, films of immunoblots were scanned at the region of 55 kDa, the major Pin1-binding protein, and data analyzed using ImageQuan (ScanJet II CX). The peptide binding constants were measured using a fluorescence polarization assay (Jiskoot, W. et al., Anal Biochem 196:421 (1991)). Peptides were fluorescein labeled at the N-terminus using the Fluorescein Amine Labeling Kit (Pan Vera Corp.) and purified by TLC according to the manufacturer's […]. To prevent nonspecific labeling, a Pintide analogue (WFYpSPFLE) SEQ ID NO: 8 and the nonphosphorylated control were used. Various concentrations of Pin1 and its mutant proteins were incubated with 0.1 μM of the labeled peptides in a binding buffer containing 50 mM HEPES, pH 7.4, 100 mM NaCl, 2% glycerol. Fluorescence polarization values were obtained using a Pan Vera Beacon 2000 system, as described by the manufacturer.

WFYSPFLE = assay: Fluorescence anisotropy binding to fluorescein-labeled nonphosphorylated control peptide; details: nonphosphorylated peptide
[1] = test system: MPM-2 antigens (mitotic phosphoproteins) of mitotic HeLa cell extracts; assay: GST pulldown from mitotic HeLa cell extracts, MPM-2 immunoblotting (phosphoprotein-binding activity)
Method: GST-fusion proteins containing the WW-domain, PPIase-domain or the entire Pin 1 protein were prepared and incubated with interphase (G1/S arrested; Control) or dividing (M phase) HeLa cell extracts using well-known procedures (Lu, K. P., et al., Nature 380:544 (1996); (Shen, M., et al., Genes & Devl. 12:706 (1998)). Briefly, HeLa cells were arrested at the G1/S boundary or mitosis by incubation with thymidine and aphidicolin or nocodazole for 16 h, respectively. The cells were lysed and supernatants incubated with 10 μl of agarose beads containing GST-Pin1; GST-WW-domain of Pin1; GST-PPIase domain of Pin1; or control GST for 2 h at 4° C. […]
Pintide and its nonphosphorylated counterpart were synthesized and incubated with GST-Pin1 or the GST-WW-domain of Pin1 in a binding buffer, using established procedures (Shen, M. et al., Genes & Dev 12:706 (1998)). […] To obtain semi-quantitative data, films of immunoblots were scanned at the region of 55 kDa, the major Pin1-binding protein, and data analyzed using ImageQuan (ScanJet II CX). The peptide binding constants were measured using a fluorescence polarization assay (Jiskoot, W. et al., Anal Biochem 196:421 (1991)). […] Fluorescence polarization values were obtained using a Pan Vera Beacon 2000 system, as described by the manufacturer. […]

phosphorylated tau = assay: GST-Pin1 pulldown of tau; type: binding; details: tau phosphorylated by Cdc2 in vitro
Sequence of phosphorylated tau (P10636 45-216 isoform P10636-2 limits assumed): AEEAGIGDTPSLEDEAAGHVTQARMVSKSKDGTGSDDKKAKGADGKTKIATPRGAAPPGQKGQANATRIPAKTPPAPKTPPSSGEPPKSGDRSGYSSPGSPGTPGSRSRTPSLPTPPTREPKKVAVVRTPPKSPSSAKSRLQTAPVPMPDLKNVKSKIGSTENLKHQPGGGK
Excerpt: Pin1 binds and regulates the function of a defined subset of mitotic phosphoproteins by interacting with conserved phosphorylated Ser/Thr-Pro motifs that are also recognized by MPM-2, a mitosis-specific, phosphorylation-dependent monoclonal antibody (mAb) (Yaffe, M. B. et al., Science 278:1957-1960 (1997); Shen, M. et al., Genes Dev. 12:706-720 (1 998)). Tau is an MPM-2 antigen phosphorylated on multiple Ser/Thr-Pro motifs during mitosis (Illenberger, S. et al., Mol Biol Cell 9:1495-1512 (1998)). Experiments were undertaken to determine whether Pin1 binds tau. Tau isoform was either synthesized by in vitro transcription and translation in the presence of ^35S-Met or produced in bacteria as an N-terminal His-tagged protein, followed by purification using NTA-Ni columns (Yaffe, M. B. et al., Science 278:1957-1960 (1997); Shen, M. et al., Genes Dev. 12:706-720 (1998)). To generate interphase- and mitosis-specific phosphorylated form of tau, tau was incubated with Xenopus interphase and mitotic extracts, respectively (Shen, M. et al., Genes Dev. 12:706-720 (1998)). […]
To determine whether Pin1 interacts with pT231-tau, GST-Pin1 beads were used to isolate tau from AD brain extracts or PHFs and T231 phosphorylation detected using CP9. […]

peptide substrate = assay: PPIase activity assay with peptide substrate; type: biochemical; details: relative to wild-type protein defined as 100%

B1: PPlase Domain: C-terminal PPIase domain (amino acids 47-163) of Pin1 (protein)
chain: NGQGEPARVRCSHLLVKHSQSRRPSSWRQEKITRTKEEALELINGYIQKIKSGEEDFESLASQFSDCSSAKARGDLGAFSRGQMQKPFEDASFALRTGEMSGPVFTDSGIHIILRTE
- fold lower affinity for the phosphopeptide than the WW-domain (WFYpSPFLE (Pintide)): about 10 fold
- binding to Pintide (in words) (WFYpSPFLE (Pintide); fluorescence anisotropy): No binding was detected
- Kd (WFYpSPFLE (Pintide); low affinity binding site, read-out: WFYpSPFLE Kd(μM) Low affinity): 15 µM
- WFYSPFLE Kd (WFYSPFLE): Not binding
- WFYSPFLE Kd (WFYSPFLE; listed as PPIase domain): No binding was detected
- Phosphoprotein binding activity ([1]; GST-fusion proteins with mitotic extracts, MPM2 antibody): −
- binding to mitotic phosphoproteins / MPM-2 antigens (in words) ([1]; mitotic HeLa cell extracts): no specific binding
- binding to Cdc2 phosphorylated tau (phosphorylated tau): not
- PPlase Activity (%) (peptide substrate): 90%
